The values that follow come from article PMC5835112.

The data set addresses CsrA (Yersinia pseudotuberculosis, UniProt B1JJ99 1-61). The experiment in a line: analytical SEC; 50 uM CsrA, 25 uM RNA. To be noted: protein: recombinant; tags: His6 (pET28a); chain copies: 2; hairpin (predicted).

Chain of CsrA (B1JJ99 whole entry): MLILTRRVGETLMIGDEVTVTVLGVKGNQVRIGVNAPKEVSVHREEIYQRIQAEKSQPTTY

As for CUUUCACUUUCUUAACAUGAUACAGGAGGGCUUAUG (structured_RNA) [urease SD RNA (Pure-CsrA RNA)], the binding result is reported as “binds”.
